Experiment [1] addresses T1, huGIPR ECD (human, UniProt P48546 22-139, limits assumed).
T1 construct: Soluble ECD injected in the MASS-1 assay; also called human GIPR extracellular domain
T1 sequence: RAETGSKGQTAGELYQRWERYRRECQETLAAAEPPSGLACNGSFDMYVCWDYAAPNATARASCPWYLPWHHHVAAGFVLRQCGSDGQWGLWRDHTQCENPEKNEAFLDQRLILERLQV
The experiment in a line: SPR (MASS-1), captured mAb, 200 nM huGIPR ECD.
Protocol: Binding assays were carried out on the immobilized goat anti-huFc antibody surface by MASS-1. The experiment was performed at 25° C. The instrument running buffer was 0.005% P20/PBS. The goat anti-huFc capture antibody was covalently attached to the sensor chip surface via standard amine coupling to flow cells channel 1-8/A&B. The anti-huGIPR antibodies were diluted in sample buffer (0.1 mg/mL BSA, 0.005% P20, PBS) to 10 nM then captured to flow cells channel B. Channel A was as a blank reference surface without injection of anti-huGIPR antibody. The captured response range of channel B was ˜100-400 RU. Then 200 nM huGIPR ECD was injected over the goat anti-huFc antibody captured anti-huGIPR antibody surfaces at flow rate 25 μL/min for 3 minutes. After a 6 minute dissociation, each surface was regenerated by injecting 10 mM Glycine, pH1.5 for 30 seconds. The sensorgrams were analyzed using MASS-1 software (AnalyserR2, version 0.1.6.5).

The target of experiment [2] is T2, Rhesus GIPR (rhesus, UniProt F7E1R9 22-466).
T2 sequence: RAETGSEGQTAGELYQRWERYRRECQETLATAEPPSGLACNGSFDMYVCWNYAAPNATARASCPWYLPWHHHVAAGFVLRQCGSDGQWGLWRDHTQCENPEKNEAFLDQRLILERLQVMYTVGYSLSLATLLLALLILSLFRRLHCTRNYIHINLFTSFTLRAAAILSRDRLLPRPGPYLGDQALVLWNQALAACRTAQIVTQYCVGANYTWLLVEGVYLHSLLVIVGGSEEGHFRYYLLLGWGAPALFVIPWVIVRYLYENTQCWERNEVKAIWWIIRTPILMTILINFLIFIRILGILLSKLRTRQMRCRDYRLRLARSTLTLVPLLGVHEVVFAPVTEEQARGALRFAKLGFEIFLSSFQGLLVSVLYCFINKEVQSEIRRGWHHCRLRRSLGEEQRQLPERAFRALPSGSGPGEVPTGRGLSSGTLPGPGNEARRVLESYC
As to the kind of experiment: cell-based or functional assay.

Experiment [3] deals with T3, human GIPR transiently expressed on 293T cells (human, UniProt P48546 22-466).
T3 sequence: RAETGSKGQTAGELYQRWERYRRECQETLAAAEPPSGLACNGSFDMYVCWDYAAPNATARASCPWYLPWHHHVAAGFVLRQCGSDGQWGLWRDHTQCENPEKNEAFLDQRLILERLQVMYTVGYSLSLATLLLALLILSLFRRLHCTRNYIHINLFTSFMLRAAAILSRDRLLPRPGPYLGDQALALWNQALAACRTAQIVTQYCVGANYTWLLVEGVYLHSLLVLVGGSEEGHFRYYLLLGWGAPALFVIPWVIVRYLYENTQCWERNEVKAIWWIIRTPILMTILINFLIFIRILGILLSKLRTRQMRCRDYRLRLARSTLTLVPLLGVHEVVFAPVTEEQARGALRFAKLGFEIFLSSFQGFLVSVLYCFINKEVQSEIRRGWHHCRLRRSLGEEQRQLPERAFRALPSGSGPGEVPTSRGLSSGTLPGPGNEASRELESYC
The experiment in a line: cell-based or functional assay.

Experiment [4] has as its target T1, huGIPR ECD. The experiment in a line: SPR (MASS-1), captured mAb.

Data on 2 molecules can be found in patent publication US20250376529A1 (Amgen, published 2025).

B1: 2G10_LC1.006 (antibody, human IgG1, kappa, N297G, V domains shown)
VH: not shown
VL: EIVMTQSPATLSVSPGERATLSCRASQSVSSNLAWYQQKPGQAPRLLIYGAATRATGIPARVSGSGSGTEFTLTISSLQSEDFAVYYCQQYNNWPLTFGGGTKVEIKR
notes: also called iPS:361192; iPS:361194
Turning to B1, in experiment [1], the dissociation rate constant (koff) (commonly the rate constant with which the complex falls apart) is 0.001 s⁻¹. Further, the “Rhesus GIPR CAMP Assay (Conc. mAb @ 60% Inhibition in nM)” value in experiment [2] was 0.52 nM. The “Hu GIPR CAMP Assay (Conc. mAb @ 60% Inhibition in nM)” value in experiment [3] amounted to 1.04 nM.

B2: 6A5.004.009 (antibody, human IgG1, kappa, N297G, V domains shown)
VH: QVQLVESGGGVVQPGRSLRLSCAASGFSFSSYGMHWVRQPPGKGLEWVAAIWYDANNKYYADSVKGRFTISRDSSKNTLYLQMNSLRAEDTAVYYCARDRTIFGVVLEYWGQGTLVTVSS
VL: DIQMTQSPSSLSASVGDRVTITCQASQDITNYLNWYQQKPGKAPKLLIYDASNLEPGVPSRFSGSGSGTDFTLTISSLQPEDFATYYCQQYDDLFTFGPGTKVDIKR
notes: also called iPS:361120; iPS:361122
On to B2, for which the binding result in experiment [4] was “no binding (tested: 200 nM huGIPR ECD)”. The “Rhesus GIPR CAMP Assay (Conc. mAb @ 60% Inhibition in nM)” value in experiment [2] amounted to 23.3 nM.
